Experimental data taken from IntAct's records for PubMed 21300286.

B1: Tumor necrosis factor receptor superfamily member 6B (Homo sapiens), O95407 (parent)
chain: MRALEGPGLSLLCLVLALPALLPVPAVRGVAETPTYPWRDAETGERLVCAQCPPGTFVQRPCRRDSPTTCGPCPPRHYTQFWNYLERCRYCNVLCGEREEEARACHATHNRACRCRTGFFAHAGFCLEHASCPPGAGVIAPGTPSQNTQCQPCPPGTFSASSSSSEQCQPHRNCTALGLALNVPGSSSHDTLCTSCTGFPLSTRVPGAEECERAVIDFVAFQDISIKRLQRLLQALEAPEGWGPTPRAGRAALQLKLRRRLTELLGAQDGALLVRLLQALRVARMPGLERSVRERFLPVH
B2: Tumor necrosis factor receptor superfamily member 6B (Homo sapiens), O95407 (parent)
chain: B1 chain
partner: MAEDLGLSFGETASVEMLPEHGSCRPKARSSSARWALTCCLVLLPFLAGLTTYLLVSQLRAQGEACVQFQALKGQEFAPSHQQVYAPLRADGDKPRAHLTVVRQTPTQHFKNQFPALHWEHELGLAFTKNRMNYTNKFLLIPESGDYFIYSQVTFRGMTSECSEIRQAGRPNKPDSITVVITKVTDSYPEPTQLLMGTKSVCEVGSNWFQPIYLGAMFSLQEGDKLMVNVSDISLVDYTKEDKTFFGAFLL
B3: Tumor necrosis factor ligand superfamily member 15 (Homo sapiens), O95150-1 (parent)
chain: B2 partner
partner: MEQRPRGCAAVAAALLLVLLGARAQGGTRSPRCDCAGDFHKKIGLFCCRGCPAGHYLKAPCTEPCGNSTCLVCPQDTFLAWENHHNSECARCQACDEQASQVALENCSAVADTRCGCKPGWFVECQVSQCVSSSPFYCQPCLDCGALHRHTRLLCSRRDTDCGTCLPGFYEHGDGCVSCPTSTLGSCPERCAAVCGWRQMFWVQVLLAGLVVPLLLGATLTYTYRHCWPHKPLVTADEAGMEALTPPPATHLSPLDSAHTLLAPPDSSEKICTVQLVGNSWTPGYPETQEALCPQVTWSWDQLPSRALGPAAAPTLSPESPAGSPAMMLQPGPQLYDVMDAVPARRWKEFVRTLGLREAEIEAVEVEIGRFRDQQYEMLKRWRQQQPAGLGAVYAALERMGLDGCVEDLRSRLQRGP

Variants of: B1
Conditions: with TNFSF14, O43557-1
Chain of TNFSF14, O43557-1 (O43557 whole entry): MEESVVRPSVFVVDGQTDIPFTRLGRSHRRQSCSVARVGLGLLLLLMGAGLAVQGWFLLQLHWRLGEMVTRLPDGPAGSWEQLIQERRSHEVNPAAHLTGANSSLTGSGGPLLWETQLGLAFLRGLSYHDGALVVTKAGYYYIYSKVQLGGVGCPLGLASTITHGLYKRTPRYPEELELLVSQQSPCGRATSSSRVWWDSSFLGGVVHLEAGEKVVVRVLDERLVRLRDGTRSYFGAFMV

Question: With L85A;R89A as the variant, how does the “effect of a mutation on the interaction” value read?
Answer: decreasing interaction

Variants of: B1
Conditions: with tnfl6_human FASLG

Question: For L85A;R89A, which “effect of a mutation on the interaction” value is on record?
Answer: disrupting interaction

Variants of: B2
Conditions: with TNFSF15, O95150-1

Question: L85A;R89A was tested. Which “effect of a mutation on the interaction” value did it give?
Answer: decreasing interaction

Variants of: B3
Conditions: with TNFRSF25, Q93038-1

Question: For C162S;S187A;E190A;C202S, which “effect of a mutation on the interaction” value is on record?
Answer: disrupting interaction
